Test results reported in patent US10287344B2, “Methods for reducing global chronic inflammation and the presence of melanoma” (Mayo Foundation for Medical Education and Research, priority 2008, dated 2019).

Tested on: PBMC from healthy donors
Assay: VEGF mediated Th1/Th2 polarity: PBMC stimulated 3 days with CD3/CD28 expander beads, intracellular IFN-γ/IL-4 in CD4+ T-cells
Assay type: cell-based, human
Conditions: 10 μg/mL IL-12 added to culture containing 16 pg/mL of VEGF
Experimental: PBMC (A) isolated from healthy donors were stimulated with PMA and ionomycin in the presence of brefeldin-A, permeabolized, and intracellularly stained for human IFN-γ (FITC) and human IL-4 (PE). PBMC were exposed to increasing concentrations of VEGF ([…]) without/with IL-12. All cells were immunostained with PC5 anti-human CD4. Purified CD4+ T-cells (B) were negatively isolated using Miltenyi beads, cultured, and stained in the same fashion as PBMC (A).
To determine the effect of VEGF on Th1 and Th2 polarity, PBMC from healthy donors were stimulated for 3 days with CD3/CD28 expander beads (Invitrogen Oslo, Norway) with and without increasing doses of recombinant VEGF (1-16 pg/mL). Cells were also cultured with 10 μg/mL recombinant human IL-12 (R and D Systems, Minneapolis, Minn.) or 8 μg/mL of a monoclonal anti-human IL-12 (R and D Systems Minneapolis, Minn. clone #24910). […]
In addition, healthy donor PBMC were stimulated with CD3^+/CD28^+ expander micro-beads for 3 days with increasing concentrations (1 pg/mL-16 pg/mL) of recombinant VEGF and assessed intracellular cytokine production of IL-4 (Th2 cytokine) and IFN-γ (Th1 cytokine) in CD4^+ T-cells at the end of in vitro culture (FIG. 8a).

B1: IL-12: recombinant human IL-12 (R and D Systems) (protein, UniProt P29459 23-219; P29460 23-328, looked up)
Interleukin-12 subunit alpha: RNLPVATPDPGMFPCLHHSQNLLRAVSNMLQKARQTLEFYPCTSEEIDHEDITKDKTSTVEACLPLELTKNESCLNSRETSFITNGSCLASRKTSFMMALCLSSIYEDLKMYQVEFKTMNAKLLMDPKRQIFLDQNMLAVIDELMQALNFNSETVPQKSSLEEPDFYKTKIKLCILLHAFRIRAVTIDRVMSYLNAS
Interleukin-12 subunit beta: IWELKKDVYVVELDWYPDAPGEMVVLTCDTPEEDGITWTLDQSSEVLGSGKTLTIQVKEFGDAGQYTCHKGGEVLSHSLLLLHKKEDGIWSTDILKDQKEPKNKTFLRCEAKNYSGRFTCWWLTTISTDLTFSVKSSRGSSDPQGVTCGAATLSAERVRGDNKEYEYSVECQEDSACPAAEESLPIEVMVDAVHKLKYENYTSSFFIRDIIKPDPPKNLQLKPLKNSRQVEVSWEYPDTWSTPHSYFSLTFCVQVQGKSKREKKDRVFTDKTSATVICRKNASISVRAQDRYYSSSWSEWASVPCS
shift in T-helper polarity in culture containing VEGF: prevented the shift in T-helper polarity from Th1 to Th2
